Experiment [1] deals with T1, His-tagged human LILRB2 polypeptide (human, UniProt Q8N423 22-460).
T1 construct: SPR analyte; also called His-tagged human LILBR2 polypeptide; not shown: His tag
As to the kind of experiment: SPR, antibody on CM5 chip, His-LILRB2 analyte, 1:1 model. The procedure: Surface plasmon resonance (SPR) was used to examine binding activities of exemplary anti-LILBR2 antibodies disclosed herein. Briefly, the anti-LILBR2 antibody was diluted in a coating buffer to a concentration of 30 μg/ml, loaded onto CM5 chips at 10 μl/min to allow coating of the antibody on the surface of the CM5 chip. […] Binding affinity was measured based on the 1:1 binding model.

Another experiment has as its target T2, LILRB2-Fc fusion protein (human, UniProt Q8N423 22-460, limits assumed).
T2 construct: not shown: Fc
In words: ELISA, blockade of LILRB2-Fc binding to coated His-ANGPTL2. The procedure: His-tagged ANGPTL2 protein (1 μg/ml) was placed in a 96-well plate ([…]) and incubated at 4° C. overnight. Afterwards, LILRB2-Fc fusion protein at 0.25 mg/ml was incubated with the anti-LILRB2 antibody at various concentrations at room temperature for one hour and then added into the His-ANGPTL2 coated plate. The plate was placed in a shaker at 500 rpm for 2 hours at room temperature. HRP-labelled goat anti-human Fc antibody (1:10,000 dilution) was added to the plate (100 μl/well). After incubation at room temperature for 1 hour, TMB was added for color development.
Clones 11B12, 9B6, 9H6, and 14F1 were selected for dose-dependent blockade assays. A mouse IgG (mIgG) antibody was used as a negative control. […] The IC₅₀ values are around 1 nM. […] (ix) Exemplary Anti-LILBR2 Antibodies Enhanced TNFα Expression and Suppressed IL-10 Expression in LPS-Stimulated PBMCs

The next experiment concerns the target T3, LILRB3-His.
T3 construct: also called His-tagged LILRB3; recombinant LILRB3 protein
In words: ELISA on recombinant His-tagged protein, OD450.

Experiment [2] has as its target LILRB2 antigen of the ELISA of Table 5 (format not specified) (UniProt Q8N423 22-460, limits assumed). In words: ELISA, antibody titration. (In general: An ELISA detects its analyte on a solid surface through an enzyme-linked reagent.)
In experiment [3] the target is T4, human LILRB1 expressed on 293T cells (human, UniProt Q8NHL6 24-650).
T4 construct: whole, on cells
T4 sequence (Q8NHL6 24-650): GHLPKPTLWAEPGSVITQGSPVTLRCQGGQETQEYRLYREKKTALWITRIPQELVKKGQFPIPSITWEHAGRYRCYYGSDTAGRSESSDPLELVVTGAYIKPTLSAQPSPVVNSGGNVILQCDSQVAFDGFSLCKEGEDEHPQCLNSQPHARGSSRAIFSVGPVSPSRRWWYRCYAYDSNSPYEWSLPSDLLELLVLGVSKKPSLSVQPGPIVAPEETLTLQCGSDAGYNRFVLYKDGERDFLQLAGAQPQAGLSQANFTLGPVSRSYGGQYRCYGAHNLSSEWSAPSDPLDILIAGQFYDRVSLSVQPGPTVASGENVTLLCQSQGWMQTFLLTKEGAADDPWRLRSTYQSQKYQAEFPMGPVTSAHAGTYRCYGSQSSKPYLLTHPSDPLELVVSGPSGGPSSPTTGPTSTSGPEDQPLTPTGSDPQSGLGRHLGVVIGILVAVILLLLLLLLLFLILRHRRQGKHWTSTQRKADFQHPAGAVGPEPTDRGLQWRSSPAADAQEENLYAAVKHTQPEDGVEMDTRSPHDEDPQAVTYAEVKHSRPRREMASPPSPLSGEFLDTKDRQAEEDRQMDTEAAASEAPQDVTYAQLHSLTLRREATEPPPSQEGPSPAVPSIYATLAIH
In words: cell ELISA on fixed 293T transfectants, OD490. The method, then: (§1) The cells were then immobilized with glutaraldehyde in the presence of 5% defatted milk at room temperature for 2 hours. An anti-LILRB2 antibody (2 μg/ml) was added to each well and incubated at room temperature for 2 hours. An HRP-labelled goat anti-mouse secondary antibody was then added into each well and incubated at room temperature for one hour. An HRP substrate, o-phenylenediamine dihydrochloride (OPD) was then added to each well. The plate was incubated at room temperature for 15 min to allow color development and OD₄₉₀ values were determined.

Experiment [4] concerns the target T5, human LILRB3 expressed on 293T cells (human, UniProt O75022 24-631).
T5 construct: whole, on cells
In words: cell ELISA on fixed 293T transfectants, OD490. The procedure: as §1

Experiment [5] has as its target T6, human LILRB2 expressed on cells (293T-LILRB2, CHO-K1-LILRB2) (human, UniProt Q8N423 22-597).
T6 construct: whole, on cells; the cell line is named under assay; also called HEK293T-LILRB2
As to the kind of experiment: flow cytometry, blockade of PE-HLA-A2 tetramer binding to CHO-K1-huLILRB2 cells. The procedure:
Pre-experimentation was performed to determine parameters for this assay. PE-labelled HLA-A2 tetramer at the concentration of 0.25 μg/ml and an anti-LILRB2 antibody at the concentration of 2.5 μg/ml were incubated with CHO-K1-huLILRB2 cells for 10 minutes. The cells were washed twice and then analysed by flow cytometry. […] FIG. 3A.
Clones 11B12, 9B6, and 9H6 were selected for dose-dependent blockade assays against HLA-A2 from binding to CHO-K1-huLILRB2 cells. A mouse IgG (mIgG) antibody was used as a negative control.

Experiment [6] concerns the target T6, human LILRB2 expressed on cells …. As to the kind of experiment: flow cytometry, blockade of PE-HLA-G tetramer binding to 293T-huLILRB2 cells. The procedure:
Pre-experimentation was performed to determine parameters for this assay. […] The cells were washed twice and then analysed by flow cytometry. […] FIG. 3C.
A mouse IgG (mIgG) antibody was used as a negative control.
A general note: A flow cytometer gives signals particle by particle.

Experiment [7] deals with T4, human LILRB1 expressed on 293T cells. As to the kind of experiment: flow cytometry on 293T transfectants, MFI. An outline of the steps:
(§2)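 Cells fixed with glutaraldehyde in 5% defatted milk, RT 2 h, then stained with anti-LILRB2 antibody (5 μg/ml, RT 1 h) and Alexa Fluor goat anti-mouse secondary (1:2,000, RT 30′). After two PBS washes, mean fluorescence intensity was measured.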

For experiment [8], the target named is T5, human LILRB3 expressed on 293T cells. As to the kind of experiment: flow cytometry on 293T transfectants, MFI. In a few lines:
as §2

Experiment [9] shares this target. In words: cell ELISA, 293T-LILRB3 cells, antibody 2 ug/ml. The procedure: as §1
Experiment [10] addresses T6, human LILRB2 expressed on cells …. In words: cell ELISA, 293T-LILRB2 cells, antibody 2 ug/ml. The procedure:
as §1

The target in the next experiment is T7, LILRB1-His.
T7 construct: also called His-tagged LILRB1; recombinant LILRB1 protein
T7 sequence (chain, as listed by the source limits assumed): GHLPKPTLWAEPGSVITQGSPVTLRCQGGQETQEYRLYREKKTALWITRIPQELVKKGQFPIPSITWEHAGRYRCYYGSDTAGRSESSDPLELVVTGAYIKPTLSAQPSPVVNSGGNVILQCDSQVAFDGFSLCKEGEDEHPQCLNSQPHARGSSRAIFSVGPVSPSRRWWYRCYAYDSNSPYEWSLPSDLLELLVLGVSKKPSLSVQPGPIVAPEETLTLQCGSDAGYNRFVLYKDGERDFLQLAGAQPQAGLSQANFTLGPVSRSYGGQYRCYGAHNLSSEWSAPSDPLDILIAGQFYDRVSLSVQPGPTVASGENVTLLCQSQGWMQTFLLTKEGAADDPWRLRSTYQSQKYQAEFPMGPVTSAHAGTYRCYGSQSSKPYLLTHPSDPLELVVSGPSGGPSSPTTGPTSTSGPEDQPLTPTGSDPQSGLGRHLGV
As to the kind of experiment: ELISA on recombinant His-tagged protein, OD450.

Experiment [11] addresses T4, human LILRB1 expressed on 293T cells. In words: cell ELISA, 293T-LILRB1 cells, antibody 2 ug/ml. The method, then: as §1

We go through four molecules from patent US20240109962A1 (SPARX BIOSCIENCE, published 2024).

T1 sequence (Q8N423 22-460 limits assumed): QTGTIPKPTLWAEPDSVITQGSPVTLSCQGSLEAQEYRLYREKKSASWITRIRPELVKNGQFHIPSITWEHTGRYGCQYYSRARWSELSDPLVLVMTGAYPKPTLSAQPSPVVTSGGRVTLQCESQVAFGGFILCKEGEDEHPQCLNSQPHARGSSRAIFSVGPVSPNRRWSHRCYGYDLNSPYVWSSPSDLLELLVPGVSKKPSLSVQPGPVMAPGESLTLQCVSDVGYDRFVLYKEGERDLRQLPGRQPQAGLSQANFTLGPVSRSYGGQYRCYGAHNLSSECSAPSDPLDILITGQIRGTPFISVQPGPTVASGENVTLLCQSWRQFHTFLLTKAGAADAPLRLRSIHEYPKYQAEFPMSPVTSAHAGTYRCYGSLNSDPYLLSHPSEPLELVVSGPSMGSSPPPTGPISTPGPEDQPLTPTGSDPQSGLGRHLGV
LILRB2 antigen of the ELISA of Table 5 (format not specified), sequence (Q8N423 22-460 limits assumed): as above
T2 sequence (Q8N423 22-460 limits assumed): as above
T6 sequence (Q8N423 22-597): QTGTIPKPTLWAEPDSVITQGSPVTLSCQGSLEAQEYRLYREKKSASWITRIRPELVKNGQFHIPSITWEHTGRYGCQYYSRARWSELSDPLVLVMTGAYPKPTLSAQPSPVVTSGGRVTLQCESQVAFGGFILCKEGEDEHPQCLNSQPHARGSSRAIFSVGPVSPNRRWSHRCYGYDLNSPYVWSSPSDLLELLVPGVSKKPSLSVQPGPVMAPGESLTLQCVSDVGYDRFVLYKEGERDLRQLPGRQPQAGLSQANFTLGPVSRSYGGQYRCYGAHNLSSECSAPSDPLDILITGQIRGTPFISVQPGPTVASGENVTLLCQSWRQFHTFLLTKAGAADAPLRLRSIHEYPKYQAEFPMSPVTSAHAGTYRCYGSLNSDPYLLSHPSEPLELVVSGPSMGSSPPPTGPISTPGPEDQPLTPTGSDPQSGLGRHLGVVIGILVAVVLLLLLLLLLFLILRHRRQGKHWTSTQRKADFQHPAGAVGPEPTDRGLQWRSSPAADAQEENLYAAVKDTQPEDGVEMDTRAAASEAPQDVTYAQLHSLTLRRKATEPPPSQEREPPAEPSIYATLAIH

B1: Antibody 11B12 (antibody, V domains shown)
VH: DVQLQESGPGLVKPSQSLSLTCSVTGYSITSGYYWNWIRQFPGNKLEWMGYISYDGNNNYNPSLKNRISITRDTSKNQFFLKLNSVTTEDTATYYCAREESTMITTAWFAYWGQGTLVTVSA
VL: DIQMTQSPASLSVSVGETVTITCRASENIYSNLAWYQQKQGKSPQLLVYGATNLADGVPSRFSGSGSGTQYSLKINSLQSEDFGSYFCQHFWDTPYTFGGGTKLEIK
notes: Mouse hybridoma mAb purified from ascites
As a reminder, the Kd is the constant that tells how readily two partners part at equilibrium. What is called koff is a measure of how fast the partners let go of each other. A low value points to slow dissociation. For orientation: kon means the second-order rate constant of association. Read a low kon as slower complex formation. By IC50 is commonly meant the concentration that inhibits the measured activity by half. Higher therefore signals a need for much substance. Take B1: the Kd in experiment [1] was determined as 0.353 nM; in [2], 3.2 nM. The same molecule displayed a koff in [1] of 0.00032 s⁻¹. This molecule gave a kon in [1] of 905000 M⁻¹ s⁻¹. Moreover, the values for the concentration for half-maximal inhibition (IC50) (with LILRB2-Fc fusion protein; in experiment [5]; in [6]) were 1 nM, 0.475 nM and 0.857 nM, respectively. Also, the binding result in the experiment with LILRB3-His is recorded as “no binding”; in experiment [3], “no binding (tested: 2 µg/ml)”; in experiment [4], “no binding (tested: 2 µg/ml)”.

B2: Antibody 9B6 (antibody, V domains shown)
VH: DVQLVESGGGLVQPGWSRILSCAASGFTFSNFGMHWVRQAPEKGLEWVAYISSGSGTIYYSDTVRGRFTISRDNPKNTLFLLMTSLRSEDTAMYYCTRSDYDGDWFFDVWGAGTTVTVSS
VL: DIVMTQSHRFLSTSVGDRVTITCKASQDVTTAVAWCQQKPGQSPKLLIYSASFRYTGVPDRFTGSGSGTDFTFTINNVQAEDLALYYCQQHFTTPLTFGAGTKLELK
notes: as for B1
On to B2, for which the figures for the Kd in [1] and in experiment [2] were 1.07 nM and 0.943 nM, respectively. The molecule further registered a koff in experiment [1] of 0.000864 s⁻¹. For the same molecule, the kon in experiment [1] is 809000 M⁻¹ s⁻¹. In addition, the binding result in experiment [7] is “no binding (tested: 5 µg/ml)”; in experiment [8] it was “no binding (tested: 5 µg/ml)”; in the experiment with LILRB3-His, “no binding”; with LILRB1-His it was “no binding”. The OD490 in experiment [9] is 0.126 OD490; in [10], 1.43 OD490; in experiment [11], 0.121 OD490. The IC50 with LILRB2-Fc fusion protein came out at 1.01 nM; in experiment [5], 0.34 nM; in [6], 0.618 nM.

B3: Antibody 9H6 (antibody, V domains shown)
VH: EVQLQQSGAELVRPGALVKLSCKASGFNVKDYYMHWVKQRPEQGLEWIGWIDPKNGNGIYDPKFQGKASITADTSSNTAYLQLSSLTSEDTSVYYCARGDYFGSSYLFAYWGQGTLVTVSA
VL: DIVMTQSHKFMSTSVGDRVSITCKASQDVSTAVAWYQQKPGQSPKLLIYSASYRYTGVPDRFTGSGSGTDFTFTISSVQAEDLAVYYCQQHYSTPWTFGGGAKLEIK
notes: as for B1
Regarding B3, the dissociation constant (Kd) in [1] was 0.0257 nM; in [2], 1.04 nM. The molecule further yielded a koff in experiment [1] of 4.72e-06 s⁻¹. In addition, in experiment [1], the kon was determined as 183000 M⁻¹ s⁻¹. Besides, the binding result in experiment [7] was “no binding (tested: 5 µg/ml)”; in [8], “no binding (tested: 5 µg/ml)”; in the experiment with LILRB3-His, “no binding”; with LILRB1-His, “no binding”. The figures for the OD490 in experiment [9], in [10] and in [11] were 0.139 OD490, 1.86 OD490 and 0.177 OD490, respectively. Moreover, the IC50 with LILRB2-Fc fusion protein worked out at 0.945 nM; in experiment [5] it was 4.97 nM; in experiment [6], 3.12 nM.

B4: Antibody 14F1 (antibody, V domains shown)
VH: QVQLKESGPGLVAPSQSLSITCTVSGFSLTTYGVHWVRQPPGKGLEWLGVIWTGGSTNYNSALMSRLSIIKDNSKSQVFLKMNSLQTDDTAIYYCARGGYGHTMDYWGQGTSVTVSS
VL: DIVMTQSHKFMSTSVGDRVSITCKASQDVSIAVAWYQQKPGQFPKLLIYSASYRYTGVPDRFTGGGSGTDFTFTISSVQAEDLAVYYCQQHYSTPFTFGSGTKLEIK
notes: as for B1
B4: the binding result in experiment [7] was “no binding (tested: 5 µg/ml)”; in experiment [8], “no binding (tested: 5 µg/ml)”; with LILRB3-His, “no binding”; in the experiment with LILRB1-His, “no binding”. For the same molecule, the values for the OD490 in experiment [9], in experiment [10] and in experiment [11] were 0.172 OD490, 1.21 OD490 and 0.172 OD490, respectively. The IC50 is 0.942 nM with LILRB2-Fc fusion protein and 0.82 nM in experiment [6]. In [2], this molecule had a Kd of 1.24 nM.
